Measured values from article PMC12207370 (2025).
Bridge positions count the residues as written; N and C are the ends. Square brackets hold non-standard residues; d marks the D form. Ends that are not written are not given here.

B1: CD59 (immobilized for SPR) (receptor)
chain: LQCYNCPNPTADCKTAVNCSSDFDACLITKAGLQVYNKCWKFEHCNFNDVTTRLRENELTYYCCKKDLCNFNEQLEN

Columns and labels:
Assay in all cases: SPR
[1] = target: CP-03
[2] = target: CP-13 (N-terminal Ac-D-Tyr cyclized to a C-terminal Cys (thioether macrocycle))
[3] = target: CP-04
[4] = target: CP-02
[5] = target: rILYd4 (Streptococcus intermedius, UniProt Q9LCB8 1-532)
[6] = target: B1
[7] = target: B1

Binder: B1
- Kd [1]: 23.4 nM
- Kd [2]: 10.8 nM
- Kd [3]: 11.9 nM
- Kd [4]: 15.3 nM
- Kd [5]: 48.3 nM

Binder: {CH2CO}-[dY]SWTWGNRSSVRGC (thioether N-14) [CP-06]
- koff [6]: 0.0204 s⁻¹
- Kd [7]: 11.3 nM
